Positions of bridges follow the written chain, without caps; N, C: chain ends. Residues, ends and D or L forms follow the SMILES beside them. No end group written: not given here. *: point of attachment. DOTA = O=C(O)CN1CCN(CC(=O)O)CCN(CC(=O)*)CCN(CC(=O)O)CC1

These results are taken from patent US20110300071A1, “TARGETING NPR-C IN ANGIOGENESIS AND ATHEROSCLEROSIS WITH A C-TYPE ATRIAL NATRIURETIC FACTOR (CANF)-COMB NANOCOMPLEX” (Washington University, priority 2010, published 2011).

One series is described as follows: in vitro. In kind it is in vitro ADME. The conditions noted are these: rabbit, serum. Here is the method: On the contrary, only free ^64Cu was detected in the control samples (^64Cu-acetate incubated in rabbit serum) by radio-HPLC.
The next series in a line: in vivo. The settings on record: rabbit, iv, total radioactivity. On the procedure: In these experiments, the blood clearance studies were performed in normal rabbits (n=4) to evaluate the pharmacokinetics of tracer in vivo. About 20 MBq of ^64Cu-DOTA-C-ANF was injected intravenously into the left ear of rabbit, and blood sample (0.2 mL) was drawn from the contralacteral ear over the period of 1 h (1 min, 3 min, 5 min, 10 min, 20 min, 40 min and 60 min). The activity of the blood samples were counted in gamma counter and presented in percent injected dose per gram (ID %/g).

The test system of the next series is atherosclerotic lesions. Nature of the series: MRI of Gadofluorine uptake in atherosclerotic-like lesions. The conditions noted are these: 3T MRI 1 hour after administration. It is filed as in vivo, rabbit. Here is the method:
The presence of atherosclerotic lesions in the rabbits was confirmed by 3T MRI 1 hour after administration of a non-receptor specific plaque-targeting contrast agent (Gadofluorine M, 0.5 μmol/kg body weight, Schering AG, Germany) (Sirol, M., et al., Circulation 109:2890-2896, 2004; Zheng, J., et al., Invest. Radiol. 43:49-55, 2008; Meding, J., et al., Mol. Imaging 2:120-129, 2007). […] For scanning, the rabbit was placed supine into a plastic bed. Three micropipette tubes filled with 0.5 mL Gadofluorine M served as fiducial markers, and were taped into position on the bed. At the beginning of the PET study, these tubes were drained of the Gadofluorine by syringe, and refilled with 0.5 mL of ^64Cu to serve as the PET fiducials. These helped to “co-localize” the plaque regions between the two image modalities.

For series [1], the target named is natriuretic peptide clearance receptor (NPR-C), rabbit (rabbit) (UniProt G1SZF5). Nature of the series: cell-based or functional assay.
In series [2] the target is natriuretic peptide clearance receptor (NPR-C), mouse (mouse) (UniProt P70180). Nature of the series: cell-based or functional assay.
Series [3] deals with T1, natriuretic peptide clearance receptor (NPR-C), mouse (mouse, UniProt P70180 41-536).
T1 sequence (looked up): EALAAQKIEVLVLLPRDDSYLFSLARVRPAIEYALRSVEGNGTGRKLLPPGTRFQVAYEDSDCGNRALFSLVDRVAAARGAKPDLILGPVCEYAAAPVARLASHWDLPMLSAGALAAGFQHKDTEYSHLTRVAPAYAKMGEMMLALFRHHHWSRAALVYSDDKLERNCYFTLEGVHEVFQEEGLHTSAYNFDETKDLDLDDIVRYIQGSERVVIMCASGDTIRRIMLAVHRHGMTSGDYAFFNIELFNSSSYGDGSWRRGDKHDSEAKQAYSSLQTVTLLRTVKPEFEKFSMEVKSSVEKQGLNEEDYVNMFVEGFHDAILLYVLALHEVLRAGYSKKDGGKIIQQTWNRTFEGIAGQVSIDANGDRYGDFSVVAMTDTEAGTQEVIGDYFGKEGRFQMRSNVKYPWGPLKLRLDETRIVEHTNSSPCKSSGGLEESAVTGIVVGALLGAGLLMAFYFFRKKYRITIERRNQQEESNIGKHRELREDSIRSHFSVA
The series can be described thus: cell-based or functional assay.

Series [4] addresses T2, natriuretic peptide clearance receptor (NPR-C), rabbit (rabbit, UniProt G1SZF5 25-536).
T2 sequence: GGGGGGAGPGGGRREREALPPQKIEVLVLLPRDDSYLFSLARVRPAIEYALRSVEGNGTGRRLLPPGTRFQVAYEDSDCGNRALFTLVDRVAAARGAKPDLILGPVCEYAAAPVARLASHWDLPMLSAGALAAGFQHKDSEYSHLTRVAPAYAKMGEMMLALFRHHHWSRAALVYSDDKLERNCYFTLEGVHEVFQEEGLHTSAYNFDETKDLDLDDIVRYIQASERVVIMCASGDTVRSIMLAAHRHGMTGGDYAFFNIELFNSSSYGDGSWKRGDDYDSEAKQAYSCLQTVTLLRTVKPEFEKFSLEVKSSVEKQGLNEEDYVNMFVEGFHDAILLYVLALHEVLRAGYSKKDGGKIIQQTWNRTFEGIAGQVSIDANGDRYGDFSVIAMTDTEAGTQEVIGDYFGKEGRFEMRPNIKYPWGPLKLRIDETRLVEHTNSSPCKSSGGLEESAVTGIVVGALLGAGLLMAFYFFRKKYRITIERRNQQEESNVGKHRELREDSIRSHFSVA
The series can be described thus: cell-based or functional assay.

The target of series [5] is T2, natriuretic peptide clearance receptor …. The series can be described thus: cell-based or functional assay. This is another data set of the same source.

With `CC[C@H](C)[C@@H]1NC(=O)[C@H](CCCNC(=N)N)NC(=O)[C@H](CC(=O)O)NC(=O)[C@H]([C@@H](C)CC)NC(=O)[C@H](CCCNC(=N)N)NC(=O)CNC(=O)CNC(=O)[C@H](Cc2ccccc2)NC(=O)[C@@H](NC(=O)[C@H](CO)NC(=O)[C@H](CO)NC(=O)[C@H](CCCNC(=N)N)NC(=O)CN2CCN(CC(=O)O)CCN(CC(=O)O)CCN(CC(=O)O)CC2)CSSC[C@@H](C(N)=O)NC(=O)[C@H](C)NC(=O)CNC1=O` [^64Cu-DOTA-CANF, metal not drawn] ({DOTA}-RSSCFGGRIDRIGAC-NH2; disulfide 4-15), the amount remaining (as a rule, the share of the starting amount still present when the sample was taken) at 1 h in the series “in vitro” was 97.7 ± 3.9%. Besides, the tissue uptake (commonly the percentage of the injected dose found per gram of tissue) at 0.05 h in “in vivo” stood at 0.1 %ID/g.
Turning to `CC(C(=O)NCC(=O)NCCCC[C@H](NC(=O)CO[C@H]1O[C@H](CO)[C@@H](O)[C@H](O)[C@@H]1O)C(=O)N1CCN(S(=O)(=O)C(F)(F)C(F)(F)C(F)(F)C(F)(F)C(F)(F)C(F)(F)C(F)(F)C(F)(F)F)CC1)N1CCN(CC(=O)O)CCN(CC(=O)O)CCN(CC(=O)O)CC1` (stereo partly shown) [Gadofluorine M], the “uptake in control arteries (MRI)” value with atherosclerotic lesions was “no Gadofluorine M uptake”. Moreover, in the series on atherosclerotic lesions (all rabbits, all time points), the “MRI signal in injured vessels” value is given as “increased signal”.
As for RSSCFGGRIDRIGAC-NH2 (disulfide 4-15; not fully specified; also: 64Cu label) [^64Cu-CANF-Comb (25% CANF-Comb)], in series [1], the Injury SUV, 1 h was found to be 5.31 SUV; the Injury SUV, 4 h is 4.76 SUV; the Injury SUV, 24 h was 3.74 SUV; the Injury/control SUV ratios, 1 h turned out to be 4.07. Moreover, in series [1], the Injury/control SUV ratios, 4 h amounted to 4.07; the Injury/control SUV ratios, 24 h was 4.24; the Injury/muscle SUV ratios, 1 h is 38.2; the Injury/muscle SUV ratios, 4 h turned out to be 37.7. For the same molecule, the Injury/muscle SUV ratios, 24 h in series [1] was 40.8.

B1: ^64Cu-DOTA-CANF-Comb nanoprobe (peptide)
peptide: RSSCFGGRIDRIGAC-NH2
modifications: disulfide 4-15; also: acylated with 4-pentynoic anhydride, clicked to azide-PEG methacrylate of PMMA-core/PEG-shell comb copolymer nanoparticle, DOTA in particle core chelates 64Cu
Consider B1, for which, in series [2], the ischemic/nonischemic uptake ratio, 1 h p.i. is 4.35; the ischemic/nonischemic uptake ratio, 24 h p.i. was determined as 5.35; the tracer uptake in ischemic limb, 1 h p.i. is 6.3 % ID/g; the tracer uptake in ischemic limb, 24 h was found to be 8.5 % ID/g. In series [2], the uptake in lesion site with receptor blocking, 1 h turned out to be 3.34; the uptake in lesion site with receptor blocking, 4 h stood at 3.34; the uptake in lesion site with receptor blocking, 24 h came to 3.31; the uptake ratio with receptor blocking, 1 h p.i. turned out to be 1.93. In series [2], the uptake ratio with receptor blocking, 4 h p.i. was found to be 1.87 and the uptake ratio with receptor blocking, 24 h p.i. was 1.82.
In the case of RSSCFGGRIDRIGAC-NH2 (disulfide 4-15; also: DOTA conjugated, site not given here, 64Cu chelated) [^64Cu labeled DOTA-C-type atrial natriuretic factor (CANF) conjugate], in series [3], the “ischemic/nonischemic uptake ratio, after blocking with unlabeled CANF” value turned out to be 1.24 ratio and the “ischemic/nonischemic uptake ratio, before blocking” value was 2.34 ratio. Moreover, in series [4], the “SUV ratio injured/control arteries, blocking with unlabeled C-ANF” value is 1.07 ratio; the “SUV ratio injured/control arteries, pre-blocking” value amounted to 1.42 ratio; the “target-to-background ratio injured artery/muscle, blocking” value was determined as 2.13 ratio; the “target-to-background ratio injured artery/muscle, pre-blocking” value was determined as 3.05 ratio. Besides, in series [5], the “Injury/control SUV ratios, 1 h” value is 1.87 ratio and the “Injury/muscle SUV ratios, 1 h” value is 3.39 ratio.
